Values of other authors, collected in paper PMC3193156.

Columns and labels:
Cys117 = settings: Resting state (free reduced enzyme)
His103 = settings: Resting state (free reduced enzyme)
Cys95 = Cys95 (UniProt position 95, GQSRFCIFSSS); test: NMR
His80 = His80 (UniProt position 80, GNGLGHEFLND); test: NMR

| Substance | pKa (Cys117) | pKa (His103) | pKa (Cys95) | pKa (His80) |
| --- | --- | --- | --- | --- |
| Methionine sulfoxide reductase B (MsrB domain of PilB) (Neisseria meningitidis) | 9.3 | 6.6 | – | – |
| Methionine-R-sulfoxide reductase B1 (MsrB1, selenoprotein R), Cys95 form (Mus musculus; U95C) | – | – | 6.0 | 5.7 |
